Experimental data published in patent US20240344138A1, “TARGETED THERAPIES IN CANCER” (Feng Biosciences, Inc, priority 2021, published 2024).

Assays:
[1] = system: advanced colorectal cancers metastatic to liver (mCRC); details: 3L+ mCRC metastatic to liver; cited from earlier work
[2] = system: MDSC functions; details: pre-clinical models; cited from earlier work
[3] = system: metastatic colorectal cancer patients; experiment: Retrospective analysis of anti-angiogenic therapy (bevacizumab) in metastatic colorectal cancer by TME phenotype; format: in vivo, human; details: A and IS patients
Experimental: The analysis includes 60 colorectal cancer tumor samples.
To test if TME phenotypes correlate with clinical outcomes when patients are treated with an angiogenesis inhibitor, tumor stroma RNA gene signatures are analyzed from archival tissues collected from 60 colorectal cancer patients (30 left-sided, 30 right-sided) using an ANN classifier such as the TME Panel-1 classifier. The correlation between each TME phenotype is tested against clinical outcome data. In A and IS patients, the use of bevacizumab confers gains in comparison to patients classified to IA and ID TME phenotypes: in A and IS patients median PFS and OS shifts to 15 months and 39 months, respectively. Progression-free survival and OS data in IA and ID patients are consistent with historical values. Overall, the A and IS TME phenotypes correlate specifically with improved clinical outcomes with angiogenesis inhibitors and has a predictive effect with respect to PFS.

[4] = system: stage III or IV of ovarian cancer; details: ovarian cancer stage III or IV after initial surgery; bevacizumab added to carboplatin and paclitaxel versus without; cited from earlier work
[5] = system: mCRC; details: phase II single arm study; cited from earlier work
[6] = system: advanced solid tumors in colorectal, triple-negative breast cancer, gastric, and ovarian cancers; experiment: Phase 2 open-label basket study of navicixizumab monotherapy or with paclitaxel or irinotecan, retrospective analysis by TME phenotype; format: in vivo, human; details: combined A and IS groups
Experimental: A retrospective analysis of a signal-finding Phase 2 clinical trial is conducted. Patient samples from thirty patients in a phase 2, multicenter, open-label basket study of navicixizumab monotherapy or in combination with the chemotherapeutics paclitaxel or irinotecan in patients with advanced solid tumors in colorectal, triple-negative breast cancer, gastric, and ovarian cancers. Patients in the combined A and IS groups that received navicixizumab monotherapy have an ORR greater than 40%. Patients in the combined A and IS groups that receive navicixizumab and chemotherapy have an ORR greater than 50%.

[7] = system: colorectal cancer patients; experiment: Clinical trial of navicixizumab and chemotherapy in colorectal cancer, outcome by TME phenotype; format: in vivo, human
Experimental: A clinical trial is run to show benefit of anti-angiogenesis therapy in CRC by identifying patients based on their stromal phenotypes. RNA gene signatures are analyzed from biopsy samples prior to treatment with navicixizumab and chemotherapy (such as paclitaxel, FOLFOX, FOLFIRI, etc.). The stromal phenotypes are correlated with ORR, PFS, and OS. The analysis includes 40 colorectal cancer patients with treated with navicizumab and chemotherapy in the first-line setting.

[8] = system: non-small cell lung cancer (NSCLC); experiment: Retrospective ANN analysis of Phase 3 trial of tislelizumab with pemetrexed and a platinum agent; format: in vivo, human; details: biomarker positive group (IA or IS)
Text: A retrospective analysis of 100 RNA signatures from a Phase 3 clinical trial of non-small cell lung cancer (NSCLC) with the anti-PD-1 checkpoint inhibitor tislelizumab in combination with the chemotherapeutic agents pemetrexed and a platinum agent (cisplatin or carboplatin) is run using the ANN method. […] After the retrospective ANN analysis, the biomarker positive group (IA or IS) is shown to have a PFS of 15.0 months with the combination therapy of tislelizumab and chemotherapy.

[9] = system: non-small cell lung cancer (NSCLC); details: cited from earlier work
[10] = system: colorectal cancer in dMMR or MSI-H status patients; experiment: Clinical trial of bavituximab and an anti-PD-1 checkpoint inhibitor in dMMR or MSI-H colorectal cancer, outcome by TME phenotype; format: in vivo, human
Experimental: A clinical trial is run to determine whether colorectal cancer TME phenotypes correlate to clinical responses when patients with dMMR or MSI-H status are treated with a combination of a checkpoint inhibitor and bavituximab. The analysis includes 40 colorectal cancer tumor samples.
An anti-PD-1 checkpoint inhibitor is known to increase PFS and OS in dMMR or MSI-H status patients with advanced colorectal cancer (CRC), compared to chemotherapy. CRC patients with dMMR or MSI-H have the option of anti-PD-(L)1 after advancement on appropriate front-line therapy. Patients are classified according to an ANN method such as the TME Panel-1 classifier. […] RNA gene signatures are analyzed from biopsy samples prior to treatment with anti-PD-1. The TME phenotypes are correlated with ORR and with 20-week PFS. […] 40 patients are enrolled, 10 in each of the 4 TME phenotypes. The correlation between each tumor TME phenotype is tested against clinical outcome data. In IA or IS patients the use of bavituximab and anti-PD-(L)1 confers gains in comparison to patients classified to angiogenic (A), and immune desert (ID) TME phenotypes as shown in TABLE 18.

[11] = system: melanoma; experiment: Phase 2 trial of adjuvant bavituximab and radiation after neoadjuvant immune checkpoint inhibitor, outcome by TME phenotype; format: in vivo, human
Experimental: A phase 2 clinical trial is run to determine whether melanoma tumor microenvironment phenotypes correlate to clinical responses when patients are treated with adjuvant Bavituximab and radiation following neoadjuvant immune checkpoint inhibitor treatment and surgical resection of stage 2b lymph nodes. The analysis includes samples from 20 patients. RNA gene signatures are analyzed from tumor samples acquired as surgical resections and TME phenotypes are determined. Patients are followed for ORR.
Melanoma patients receive a course of neoadjuvant immune checkpoint inhibitor (anti-PD-(L)1—i.e., an inhibitor to PD-1 or PD-L1) therapy and their stage 2b lymph nodes are resected. Radiation and Bavituximab are given as adjuvant therapy. The TME phenotypes from resected tumor samples are correlated to ORR. […] (20) patients are enrolled, with equal representation across the 4 stromal phenotypes (5 in each phenotype). The correlation between each TME phenotype is tested against clinical outcome data. In biomarker positive patients, represented by immune active (IA) and immune suppressed (IS) phenotypes, the use of the regimen of Bavituximab/radiation confers benefit in comparison to patients classified as biomarker negative, comprised of angiogenic (A) and immune desert (ID) TME phenotype classes, as shown in the TABLE 33.

CNC(=O)c1cc(Oc2ccc(NC(=O)Nc3ccc(Cl)c(C(F)(F)F)c3)c(F)c2)ccn1 [regorafenib]
median OS (mOS) [1]: ~7 months
median PFS (mPFS) [1]: ~2 months

CCCc1nn(C)c2c(=O)[nH]c(-c3cc(S(=O)(=O)N4CCN(C)CC4)ccc3OCC)nc12 [sildenafil]
effect on MDSC functions [2]: significantly inhibited the MDSC functions

bevacizumab
median OS [3]: 39 months
median PFS [3]: 15 months
Progression-free survival [4]: 18 months

carboplatin and paclitaxel
Progression-free survival [4]: 13 months

ramucirumab plus FOLFIRI: anti-angiogenic ramucirumab plus the chemotherapeutic FOLFIRI
ORR [5]: 58%
OS [5]: 20.4 mos
PFS [5]: 11.5 months

trifluoridine/tipiracil
median OS (mOS) [1]: ~7 months
median PFS (mPFS) [1]: ~2 months

B1: navicixizumab (antibody, chains of the INN, looked up, V domains shown)
VH: QVQLVQSGAEVKKPGASVKISCKASGYSFTAYYIHWVKQAPGQGLEWIGYISNYNRATNYNQKFKGRVTFTTDTSTSTAYMELRSLRSDDTAVYYCARDYDYDVGMDYWGQGTLVTVSS
VL: DIVMTQSPDSLAVSLGERATISCRASESVDNYGISFMKWFQQKPGQPPKLLIYAASNQGSGVPDRFSGSGSGTDFTLTISSLQAEDVAVYYCQQSKEVPWTFGGGTKVEIK
VH2: QVQLVQSGAEVKKPGASVKVSCKASGYTFTNYWMHWVRQAPGQGLEWMGDINPSNGRTSYKEKFKRRVTLSVDKSSSTAYMELSSLRSEDTAVYFCTIHYDDKYYPLMDYWGQGTLVTVSS
VL2: B1 VL
notes: anti-VEGF/anti-DLL4 bispecific antibody
ORR [6]: greater than 40%

B2: navicixizumab and chemotherapy: anti-VEGF/anti-DLL4 bispecific antibody navicixizumab with chemotherapy (such as paclitaxel, FOLFOX, FOLFIRI, irinotecan) (antibody, chains of the INN, looked up, V domains shown)
VH: B1 VH
VL: B1 VL
VH2: B1 VH2
VL2: B1 VL
modifications: plus chemotherapy
ORR [6]: greater than 50%
ORR (%) ([7]; A (n = 10)): 90%
OS (months) ([7]; A (n = 10)): 26 months
PFS (months) ([7]; A (n = 10)): 15 months
ORR (%) ([7]; IA (n = 10)): 30%
OS (months) ([7]; IA (n = 10)): 15 months
PFS (months) ([7]; IA (n = 10)): 10 months
ORR (%) ([7]; ID (n = 10)): 45%
OS (months) ([7]; ID (n = 10)): 20 months
PFS (months) ([7]; ID (n = 10)): 13 months
ORR (%) ([7]; IS (n = 10)): 80%
OS (months) ([7]; IS (n = 10)): 25 months
PFS (months) ([7]; IS (n = 10)): 16 months

B3: tislelizumab plus chemotherapy: anti-PD-1 checkpoint inhibitor tislelizumab with pemetrexed and a platinum agent (cisplatin or carboplatin) (antibody, chains of the INN, looked up)
heavy: QVQLQESGPGLVKPSETLSLTCTVSGFSLTSYGVHWIRQPPGKGLEWIGVIYADGSTNYNPSLKSRVTISKDTSKNQVSLKLSSVTAADTAVYYCARAYGNYWYIDVWGQGTTVTVSSASTKGPSVFPLAPCSRSTSESTAALGCLVKDYFPEPVTVSWNSGALTSGVHTFPAVLQSSGLYSLSSVVTVPSSSLGTKTYTCNVDHKPSNTKVDKRVESKYGPPCPPCPAPPVAGGPSVFLFPPKPKDTLMISRTPEVTCVVVAVSQEDPEVQFNWYVDGVEVHNAKTKPREEQFNSTYRVVSVLTVVHQDWLNGKEYKCKVSNKGLPSSIEKTISKAKGQPREPQVYTLPPSQEEMTKNQVSLTCLVKGFYPSDIAVEWESNGQPENNYKTTPPVLDSDGSFFLYSKLTVDKSRWQEGNVFSCSVMHEALHNHYTQKSLSLSLG
light: DIVMTQSPDSLAVSLGERATINCKSSESVSNDVAWYQQKPGQPPKLLINYAFHRFTGVPDRFSGSGYGTDFTLTISSLQAEDVAVYYCHQAYSSPYTFGQGTKLEIKRTVAAPSVFIFPPSDEQLKSGTASVVCLLNNFYPREAKVQWKVDNALQSGNSQESVTEQDSKDSTYSLSSTLTLSKADYEKHKVYACEVTHQGLSSPVTKSFNRGEC
modifications: plus pemetrexed and platinum chemotherapy
PFS [8]: 15.0 months
hazard ratio (PFS) ([9]; tislelizumab plus chemotherapy versus chemotherapy alone): 0.645
median PFS ([9]; without stratification into stromal phenotypes): 9.7 mo

B4: bavituximab and an anti-PD-1 checkpoint inhibitor: phosphotidylserine-targeting antibody bavituximab in combination with anti-PD-1 (antibody, chains of the INN, looked up, V domains shown)
VH: EVQLQQSGPELEKPGASVKLSCKASGYSFTGYNMNWVKQSHGKSLEWIGHIDPYYGDTSYNQKFRGKATLTVDKSSSTAYMQLKSLTSEDSAVYYCVKGGYYGHWYFDVWGAGTTVTVSS
VL: DIQMTQSPSSLSASLGERVSLTCRASQDIGSSLNWLQQGPDGTIKRLIYATSSLDSGVPKRFSGSRSGSDYSLTISSLESEDFVDYYCLQYVSSPPTFGAGTKLELK
modifications: plus anti-PD-1 checkpoint inhibitor
ORR (%) ([10]; A (n = 10)): 0%
PFS % at 20 weeks ([10]; A (n = 10)): 0%
ORR (%) ([10]; IA (n = 10)): 90%
PFS % at 20 weeks ([10]; IA (n = 10)): 100%
ORR (%) ([10]; ID (n = 10)): 0%
PFS % at 20 weeks ([10]; ID (n = 10)): 0%
ORR (%) ([10]; IS (n = 10)): 90%
PFS % at 20 weeks ([10]; IS (n = 10)): 100%

B5: Bavituximab plus radiation (antibody, chains of the INN, looked up, V domains shown)
VH: B4 VH
VL: B4 VL
modifications: plus radiation
Overall response rate (ORR) ([11]; Biomarker Negative (n = 10)): 60%
Overall response rate (ORR) ([11]; Biomarker Positive (n = 10)): 90%
Overall response rate (ORR) ([11]; TME phenotype A (n = 5)): 60%
Overall response rate (ORR) ([11]; TME phenotype IA (n = 5)): 80%
Overall response rate (ORR) ([11]; TME phenotype ID (n = 5)): 60%
Overall response rate (ORR) ([11]; TME phenotype IS (n = 5)): 100%
